Laboratory results: patent US20260242419A1, “A CYCLIC PEPTIDE FOR TRAPPING INTERLEUKIN-1 BETA” (Merck Sharp & Dohme LLC, priority 2023, published 2026)
Starred links: 1 amine or outer side, 2 acyl side, 3 side chain; linkers in the order of their positions; H or OH if unused. Non-standard residues stand in square brackets, D forms with d. F4bcpA = 3-[4-[(2S)-2-amino-2-carboxy-ethyl]phenyl]bicyclo[1.1.1]pentane-1-carboxylic acid, O=C([C@H](Cc1ccc(C23CC(C(=O)[*:3])(C2)C3)cc1)N[*:1])[*:2]; 3Pal4CO2H = 5-[(2S)-2-amino-2-carboxy-ethyl]pyridine-2-carboxylic acid, O=C([C@H](Cc1ccc(C(=O)[*:3])nc1)N[*:1])[*:2]; TyrEtNAc = (2S)-3-[4-(2-acetamidoethoxy)phenyl]-2-amino-propanoic acid, CC(=O)NCCOc1ccc(C[C@H](N[*:1])C(=O)[*:2])cc1; Phe(4-(5-CO2H-2-pyrimidyl)) = N[C@@H](Cc1ccc(-c2ncc(C(=O)O)cn2)cc1)C(=O)O; dPro(4R-(4-pyridylmethyl)) = O=C(O)[C@H]1C[C@@H](Cc2ccncc2)CN1; Ala(piperidin-4-yl) = O=C([C@H](CC1CCN([*:3])CC1)N[*:1])[*:2]; Trp(βS-Me,4-F) = C[C@@H](c1c[nH]c2cccc(F)c12)[C@H](N)C(=O)O; Bip(4'-COOH) = N[C@@H](Cc1ccc(-c2ccc(C(=O)O)cc2)cc1)C(=O)O; Ala(1-bicyclo(1.1.1)pentyl) = N[C@@H](CC12CC(C1)C2)C(=O)O; dPro(4R-Bzl(4-F)) = O=C(O)[C@H]1C[C@@H](Cc2ccc(F)cc2)CN1; Ala(morpholin-4-yl) = N[C@@H](CN1CCOCC1)C(=O)O; Ala(piperazin-1-yl) = N[C@@H](CN1CCNCC1)C(=O)O; Ala(pyrimidin-5-yl) = N[C@@H](Cc1cncnc1)C(=O)O; Phe(4-COOH) = N[C@@H](Cc1ccc(C(=O)O)cc1)C(=O)O; Pro(cis-4-F) = O=C(O)[C@@H]1C[C@H](F)CN1; 4Pal = N[C@@H](Cc1ccncc1)C(=O)O; αMeS = C[C@](N)(CO)C(=O)O; Dab = NCC[C@H](N)C(=O)O; Dap = NC[C@H](N)C(=O)O; Aib = CC(C)(N)C(=O)O

B1: SEQ ID NO: 123 (peptide)
peptide: cyclo([Bip(4'-COOH)][4Pal][Phe(4-COOH)]G[Pro(cis-4-F)][Trp(βS-Me,4-F)][Aib]EW[Aib][Ala(morpholin-4-yl)]Q[Dab]G[dPro(4R-Bzl(4-F))])
modifications: ring closure inferred
B2: SEQ ID NO: 122 (peptide)
peptide: cyclo([Bip(4'-COOH)][4Pal][Phe(4-COOH)]G[Pro(cis-4-F)][Trp(βS-Me,4-F)][Aib]EW[Aib][Ala(piperazin-1-yl)]QSG[dPro(4R-Bzl(4-F))])
modifications: ring closure inferred
B3: SEQ ID NO: 121 (peptide)
peptide: cyclo([Bip(4'-COOH)][4Pal][Phe(4-COOH)]G[Pro(cis-4-F)][Trp(βS-Me,4-F)][Aib]EW[Aib][Ala(piperidin-4-yl)]QSG[dPro(4R-Bzl(4-F))])
modifications: ring closure inferred
B4: SEQ ID NO: 125 (peptide)
peptide: cyclo([Bip(4'-COOH)][4Pal][Phe(4-COOH)]G[Pro(cis-4-F)][Trp(βS-Me,4-F)][Aib]EW[Aib][Ala(morpholin-4-yl)]QSG[dPro(4R-Bzl(4-F))])
modifications: ring closure inferred
B5: SEQ ID NO: 124 (peptide)
peptide: cyclo([Bip(4'-COOH)][4Pal][Phe(4-COOH)]G[Pro(cis-4-F)][Trp(βS-Me,4-F)][Aib]EW[Aib][Ala(morpholin-4-yl)]QSG[dPro(4R-Bzl(4-F))])
modifications: ring closure inferred
B6: SEQ ID NO: 126 (peptide)
peptide: cyclo([Bip(4'-COOH)][4Pal][Phe(4-COOH)]G[Pro(cis-4-F)][Trp(βS-Me,4-F)][Aib]EW[Aib][Ala(morpholin-4-yl)]Q[Dab]G[dPro(4R-Bzl(4-F))])
modifications: ring closure inferred
B7: SEQ ID NO: 97 (peptide)
peptide: cyclo([Bip(4'-COOH)][Ala(1-bicyclo(1.1.1)pentyl)][Phe(4-COOH)]G[Pro(cis-4-F)][Trp(βS-Me,4-F)][αMeS]SW[Aib]SQ[Dab]G[dPro(4R-Bzl(4-F))])
SMILES: C[C@@H](c1c[nH]c2cccc(F)c12)[C@@H]1NC(=O)[C@@H]2C[C@H](F)CN2C(=O)CNC(=O)[C@H](Cc2ccc(C(=O)O)cc2)NC(=O)[C@H](CC23CC(C2)C3)NC(=O)[C@H](Cc2ccc(-c3ccc(C(=O)O)cc3)cc2)NC(=O)[C@H]2C[C@@H](Cc3ccc(F)cc3)CN2C(=O)CNC(=O)[C@H](CCN)NC(=O)[C@H](CCC(N)=O)NC(=O)[C@H](CO)NC(=O)C(C)(C)NC(=O)[C@H](Cc2c[nH]c3ccccc23)NC(=O)[C@H](CO)NC(=O)[C@](C)(CO)NC1=O
B8: SEQ ID NO: 96 (peptide)
peptide: cyclo([Bip(4'-COOH)][Ala(1-bicyclo(1.1.1)pentyl)][Phe(4-COOH)]G[Pro(cis-4-F)][Trp(βS-Me,4-F)][Aib]EW[Aib][Dap]QSG[dPro(4R-(4-pyridylmethyl))])
SMILES: C[C@@H](c1c[nH]c2cccc(F)c12)[C@@H]1NC(=O)[C@@H]2C[C@H](F)CN2C(=O)CNC(=O)[C@H](Cc2ccc(C(=O)O)cc2)NC(=O)[C@H](CC23CC(C2)C3)NC(=O)[C@H](Cc2ccc(-c3ccc(C(=O)O)cc3)cc2)NC(=O)[C@H]2C[C@@H](Cc3ccncc3)CN2C(=O)CNC(=O)[C@H](CO)NC(=O)[C@H](CCC(N)=O)NC(=O)[C@H](CN)NC(=O)C(C)(C)NC(=O)[C@H](Cc2c[nH]c3ccccc23)NC(=O)[C@H](CCC(=O)O)NC(=O)C(C)(C)NC1=O
B9: SEQ ID NO: 99 (peptide)
peptide: cyclo([F4bcpA][Ala(1-bicyclo(1.1.1)pentyl)][Phe(4-COOH)]G[Pro(cis-4-F)][Trp(βS-Me,4-F)][Aib]EW[Aib][Ala(pyrimidin-5-yl)]Q[Dab]G[dPro(4R-Bzl(4-F))])
SMILES: C[C@@H](c1c[nH]c2cccc(F)c12)[C@@H]1NC(=O)[C@@H]2C[C@H](F)CN2C(=O)CNC(=O)[C@H](Cc2ccc(C(=O)O)cc2)NC(=O)[C@H](CC23CC(C2)C3)NC(=O)[C@H](Cc2ccc(C34CC(C(=O)O)(C3)C4)cc2)NC(=O)[C@H]2C[C@@H](Cc3ccc(F)cc3)CN2C(=O)CNC(=O)[C@H](CCN)NC(=O)[C@H](CCC(N)=O)NC(=O)[C@H](Cc2cncnc2)NC(=O)C(C)(C)NC(=O)[C@H](Cc2c[nH]c3ccccc23)NC(=O)[C@H](CCC(=O)O)NC(=O)C(C)(C)NC1=O
B10: SEQ ID NO: 94 (peptide)
peptide: cyclo([Phe(4-(5-CO2H-2-pyrimidyl))][Ala(1-bicyclo(1.1.1)pentyl)][Phe(4-COOH)]G[Pro(cis-4-F)][Trp(βS-Me,4-F)][Aib]AW[Aib]SQ[Dab]G[dPro(4R-Bzl(4-F))])
SMILES: C[C@@H]1NC(=O)C(C)(C)NC(=O)[C@H]([C@@H](C)c2c[nH]c3cccc(F)c23)NC(=O)[C@@H]2C[C@H](F)CN2C(=O)CNC(=O)[C@H](Cc2ccc(C(=O)O)cc2)NC(=O)[C@H](CC23CC(C2)C3)NC(=O)[C@H](Cc2ccc(-c3ncc(C(=O)O)cn3)cc2)NC(=O)[C@H]2C[C@@H](Cc3ccc(F)cc3)CN2C(=O)CNC(=O)[C@H](CCN)NC(=O)[C@H](CCC(N)=O)NC(=O)[C@H](CO)NC(=O)C(C)(C)NC(=O)[C@H](Cc2c[nH]c3ccccc23)NC1=O
B11: SEQ ID NO: 95 (peptide)
peptide: cyclo([TyrEtNAc][4Pal][Phe(4-COOH)]G[Pro(cis-4-F)][Trp(βS-Me,4-F)][Aib]EW[Aib][4Pal]Q[Dab]G[dPro(4R-Bzl(4-F))])
SMILES: CC(=O)NCCOc1ccc(C[C@@H]2NC(=O)[C@H]3C[C@@H](Cc4ccc(F)cc4)CN3C(=O)CNC(=O)[C@H](CCN)NC(=O)[C@H](CCC(N)=O)NC(=O)[C@H](Cc3ccncc3)NC(=O)C(C)(C)NC(=O)[C@H](Cc3c[nH]c4ccccc34)NC(=O)[C@H](CCC(=O)O)NC(=O)C(C)(C)NC(=O)[C@H]([C@@H](C)c3c[nH]c4cccc(F)c34)NC(=O)[C@@H]3C[C@H](F)CN3C(=O)CNC(=O)[C@H](Cc3ccc(C(=O)O)cc3)NC(=O)[C@H](Cc3ccncc3)NC2=O)cc1
B12: SEQ ID NO: 98 (peptide)
peptide: cyclo([Bip(4'-COOH)][Ala(1-bicyclo(1.1.1)pentyl)][3Pal4CO2H]G[Pro(cis-4-F)][Trp(βS-Me,4-F)][Aib]EW[Aib][Ala(pyrimidin-5-yl)]Q[Dab]G[dPro(4R-Bzl(4-F))])
SMILES: C[C@@H](c1c[nH]c2cccc(F)c12)[C@@H]1NC(=O)[C@@H]2C[C@H](F)CN2C(=O)CNC(=O)[C@H](Cc2ccc(C(=O)O)nc2)NC(=O)[C@H](CC23CC(C2)C3)NC(=O)[C@H](Cc2ccc(-c3ccc(C(=O)O)cc3)cc2)NC(=O)[C@H]2C[C@@H](Cc3ccc(F)cc3)CN2C(=O)CNC(=O)[C@H](CCN)NC(=O)[C@H](CCC(N)=O)NC(=O)[C@H](Cc2cncnc2)NC(=O)C(C)(C)NC(=O)[C@H](Cc2c[nH]c3ccccc23)NC(=O)[C@H](CCC(=O)O)NC(=O)C(C)(C)NC1=O

Biological target: Recombinant human IL-1β (BioLegend 579404) (human, UniProt P01584 117-269)
Assay: cell-based or functional assay

Binder | MRC5 IC50 [nM]
B1 | 0.017
B2 | 0.019
B3 | 0.029
B4 | 0.041
B5 | 0.018
B6 | 0.022

Biological target: Recombinant human IL-1β (BioLegend 579404) (human, UniProt P01584 117-269)
Assay: cell-based or functional assay
Remark: another data set of the same source

Binder | MRC5 IC50 [nM]
B7 | 0.036
B8 | 0.067
B9 | 0.031
B10 | 0.096
B11 | 0.054
B12 | 0.058
